According to patent publication US20190194317A1 (FARON PHARMACEUTICALS, published 2019):
Positions count from the first letter of the chain named.

B1: chimeric 3-372 IgG4 (antibody, V domains shown)
VH: QVTLKESGPGILQPSQTLSLTCSFSGFSLNTSGMGIGWIRQPSGKGLEWLAHIWWDDDKRYNPALKSRLTISKDTSSNQVFLKIASVDTADTATYYCARHYGYDPYYAMDYWGQGTSVTVSS
VL: QIVLTQSPAIMSASLGERVTMTCTASSSVSSSYLHWYQQRPGSSPKLCIYRTSNLASGVPPRFSGSGSGTSYSLTISSMEAEDAATYYCHQYHRSPPTFGGGTKLEIN
notes: Expressed in NSO cells; also called CH/CK; chimera
B2: mouse monoclonal antibody 3-372 (DSM ACC2520) (antibody, V domains shown)
VH: B1 VH
VL: B1 VL
notes: Mouse hybridoma antibody with kappa light chain
B3: Composite Human anti-CLEVER-1 antibody VH2/VK2 (antibody, human IgG4, V domains shown)
VH: QVTLKESGPTLVKPTQTLTLTCSFSGFSLSTSGMGIGWIRQPSGKALEWLAHIWWDDDKRYNPALKSRLTISKDTSKNQVVLTMTNMDPVDTATYYCARHYGYDPYYAMDYWGQGTLVTVSS
VL: QIVLTQSPGTLSLSPGERATMSCTASSSVSSSYLHWYQQKPGKAPKLCIYRTSNLASGVPSRFSGSGSGTDYTLTISSLQPEDFATYYCHQYHRSPPTFGQGTKLEIK
B4: Composite Human anti-CLEVER-1 antibody VH1/VK1 (antibody, human IgG4, V domains shown)
VH: B3 VH with L11I, S30N, L117S
VL: B3 VL with T10I, P81A
B5: Composite Human anti-CLEVER-1 antibody VH4/VK5 (antibody, human IgG4, V domains shown)
VH: B3 VH with S23T, S43P
VL: B3 VL with Q1E, M21L, C48L
notes: Named as a potential lead
B6: Composite Human anti-CLEVER-1 antibody VH1/VK3 (antibody, human IgG4, V domains shown)
VH: B3 VH with L11I, S30N, L117S
VL: B3 VL with Q1E
B7: Composite Human anti-CLEVER-1 antibody VH4/VK2 (antibody, human IgG4, V domains shown)
VH: B3 VH with S23T, S43P
VL: B3 VL
B8: Composite Human anti-CLEVER-1 antibody VH3/VK1 (antibody, human IgG4, V domains shown)
VH: B3 VH with S43P
VL: B3 VL with T10I, P81A
B9: humanized anti-CLEVER-1 antibody FAR02 VH3/VK5 (antibody, V domains shown)
VH: B3 VH with S43P
VL: B3 VL with Q1E, M21L, C48L
notes: Named as a potential lead; also called FAR02 VH3A/K5
B10: Composite Human anti-CLEVER-1 antibody VH4/VK1 (antibody, human IgG4, V domains shown)
VH: B3 VH with S23T, S43P
VL: B3 VL with T10I, P81A
B11: Composite Human anti-CLEVER-1 antibody VH1/VK5 (antibody, human IgG4, V domains shown)
VH: B3 VH with L11I, S30N, L117S
VL: B3 VL with Q1E, M21L, C48L
B12: Composite Human anti-CLEVER-1 antibody VH1/VK4 (antibody, human IgG4, V domains shown)
VH: B3 VH with L11I, S30N, L117S
VL: B3 VL with T10I, C48L, P81A
B13: Composite Human anti-CLEVER-1 antibody VH2/VK1 (antibody, human IgG4, V domains shown)
VH: B3 VH
VL: B3 VL with T10I, P81A
B14: Composite Human anti-CLEVER-1 antibody VH2/VK4 (antibody, human IgG4, V domains shown)
VH: B3 VH
VL: B3 VL with T10I, C48L, P81A
B15: Composite Human anti-CLEVER-1 antibody VH3/VK4 (antibody, human IgG4, V domains shown)
VH: B3 VH with S43P
VL: B3 VL with T10I, C48L, P81A
B16: Composite Human anti-CLEVER-1 antibody VH4/VK4 (antibody, human IgG4, V domains shown)
VH: B3 VH with S23T, S43P
VL: B3 VL with T10I, C48L, P81A
B17: Composite Human anti-CLEVER-1 antibody VH3/VK2 (antibody, human IgG4, V domains shown)
VH: B3 VH with S43P
VL: B3 VL
B18: Composite Human anti-CLEVER-1 antibody VH1/VK2 (antibody, human IgG4, V domains shown)
VH: B3 VH with L11I, S30N, L117S
VL: B3 VL
B19: Composite Human anti-CLEVER-1 antibody VH2/VK3 (antibody, human IgG4, V domains shown)
VH: B3 VH
VL: B3 VL with Q1E
B20: Composite Human anti-CLEVER-1 antibody VH2/VK5 (antibody, human IgG4, V domains shown)
VH: B3 VH
VL: B3 VL with Q1E, M21L, C48L
notes: Named as a potential lead

Experiments:
[1] = biological target: T1, CLEVER-1 coated on the ELISA plate (competition ELISA, Examples 5 and 10) (human, UniProt Q9NY15 26-1027, limits assumed); experiment: competition ELISA on coated CLEVER-1 against 0.6 µg/ml biotinylated mouse 3-372
T1 construct: Coated at 1 ug/ml in PBS; also called human Clever-1
T1 sequence (looked up): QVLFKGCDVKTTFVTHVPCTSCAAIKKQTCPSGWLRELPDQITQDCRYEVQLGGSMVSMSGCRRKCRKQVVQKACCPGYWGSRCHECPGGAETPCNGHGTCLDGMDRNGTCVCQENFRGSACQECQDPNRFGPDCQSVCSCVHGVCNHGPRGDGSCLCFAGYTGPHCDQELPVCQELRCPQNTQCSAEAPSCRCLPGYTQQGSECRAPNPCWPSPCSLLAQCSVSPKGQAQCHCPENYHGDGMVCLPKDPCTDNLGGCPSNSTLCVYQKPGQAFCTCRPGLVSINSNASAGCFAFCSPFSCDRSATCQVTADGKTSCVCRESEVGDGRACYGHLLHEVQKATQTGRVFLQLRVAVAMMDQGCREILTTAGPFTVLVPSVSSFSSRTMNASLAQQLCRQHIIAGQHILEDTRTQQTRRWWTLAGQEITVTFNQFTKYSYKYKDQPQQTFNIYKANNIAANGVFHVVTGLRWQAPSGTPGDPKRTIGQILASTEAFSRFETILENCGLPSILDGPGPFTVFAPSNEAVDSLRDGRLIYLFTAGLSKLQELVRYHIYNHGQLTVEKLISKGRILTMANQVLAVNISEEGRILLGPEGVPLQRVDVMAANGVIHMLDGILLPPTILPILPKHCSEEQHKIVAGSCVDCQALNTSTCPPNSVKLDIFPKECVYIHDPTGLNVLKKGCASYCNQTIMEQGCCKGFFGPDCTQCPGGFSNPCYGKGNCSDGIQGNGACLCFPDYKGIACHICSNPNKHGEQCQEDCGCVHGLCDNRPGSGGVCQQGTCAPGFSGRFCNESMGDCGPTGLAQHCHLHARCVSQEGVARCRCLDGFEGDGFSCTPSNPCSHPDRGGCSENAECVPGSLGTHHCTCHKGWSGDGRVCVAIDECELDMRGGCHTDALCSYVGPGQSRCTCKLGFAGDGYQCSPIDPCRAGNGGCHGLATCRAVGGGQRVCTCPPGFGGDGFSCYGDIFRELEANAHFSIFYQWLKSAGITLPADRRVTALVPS
Procedure: Briefly, a Nunc Immulon 96 well maxisorp plate (Fisher Cat. No. DIS-971-030J) was coated with CLEVER-1 at 1 μg/ml in PBS (100 μl/well) overnight at 4° C., with an additional 1 hour at 37° C. the following morning. Wells were washed with PBS/0.1% Tween 20 and then blocked for 45 min at room temperature, in 1% Marvel/1% BSA/PBS.
The blocked ELISA plate was washed as before and 100 μl of the premixed antibodies added to each well. The plate was incubated for 1 hour at room temperature.
This confirms that the correct variable region sequences have been identified and expressed in the chimeric antibody.

[2] = biological target: T1, CLEVER-1 coated on the ELISA plate …; experiment: competition ELISA on coated CLEVER-1 against biotinylated mouse 3-372
Procedure: These were incubated for 1 hour at room temperature on a 96 well Immulon maxisorp plate (Fisher Cat. No. DIS-971-030J) precoated with 1 μg/ml CLEVER-1. […] The reaction was stopped with 3M HCl, absorbance read at 450 nm on a Dynex Technologies MRX TC II plate reader and the binding curves plotted. IC50 values for each antibody were calculated and these were normalized to the IC50 of the chimera which was included on each respective ELISA plate.

Binder	IC50 [1]	Relative IC50 [2]
B1	0.89 µg/mL	1 relative to the chimera on the same plate
B2	0.77 µg/mL	–
B3	–	0.95 relative to the chimera on the same plate
B4	–	0.84 relative to the chimera on the same plate
B5	–	0.46 relative to the chimera on the same plate
B6	–	1.63 relative to the chimera on the same plate
B7	–	0.9 relative to the chimera on the same plate
B8	–	0.76 relative to the chimera on the same plate
B9	–	0.42 relative to the chimera on the same plate
B10	–	1.86 relative to the chimera on the same plate
B11	–	1.13 relative to the chimera on the same plate
B12	–	1.17 relative to the chimera on the same plate
B13	–	0.82 relative to the chimera on the same plate
B14	–	0.79 relative to the chimera on the same plate
B15	–	0.47 relative to the chimera on the same plate
B16	–	1.2 relative to the chimera on the same plate
B17	–	0.51 relative to the chimera on the same plate
B18	–	1.37 relative to the chimera on the same plate
B19	–	0.7 relative to the chimera on the same plate
B20	–	0.52 relative to the chimera on the same plate
